Patent US20260184748A1 (University of Pennsylvania, published 2026)
Where no end group is shown, it is not given here.

Tests used:
Experiment in all cases: cell-based or functional assay
[1] = biological target: T1, ADRA2C (UniProt P18825 1-462)
T1 sequence (looked up): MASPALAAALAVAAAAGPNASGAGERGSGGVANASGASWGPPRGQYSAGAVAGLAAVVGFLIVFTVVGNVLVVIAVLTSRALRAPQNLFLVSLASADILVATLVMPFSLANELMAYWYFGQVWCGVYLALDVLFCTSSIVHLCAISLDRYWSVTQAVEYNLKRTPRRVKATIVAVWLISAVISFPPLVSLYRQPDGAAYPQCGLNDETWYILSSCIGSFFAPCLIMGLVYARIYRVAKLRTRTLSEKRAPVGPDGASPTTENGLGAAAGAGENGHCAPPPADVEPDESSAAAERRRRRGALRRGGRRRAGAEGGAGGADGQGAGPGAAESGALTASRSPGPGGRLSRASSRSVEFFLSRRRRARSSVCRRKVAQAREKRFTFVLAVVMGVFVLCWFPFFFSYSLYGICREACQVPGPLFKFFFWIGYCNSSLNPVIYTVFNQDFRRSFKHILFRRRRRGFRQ

[2] = biological target: OXER1 (UniProt Q8TDS5 1-384, limits assumed)
Chain of OXER1 (Q8TDS5 whole entry): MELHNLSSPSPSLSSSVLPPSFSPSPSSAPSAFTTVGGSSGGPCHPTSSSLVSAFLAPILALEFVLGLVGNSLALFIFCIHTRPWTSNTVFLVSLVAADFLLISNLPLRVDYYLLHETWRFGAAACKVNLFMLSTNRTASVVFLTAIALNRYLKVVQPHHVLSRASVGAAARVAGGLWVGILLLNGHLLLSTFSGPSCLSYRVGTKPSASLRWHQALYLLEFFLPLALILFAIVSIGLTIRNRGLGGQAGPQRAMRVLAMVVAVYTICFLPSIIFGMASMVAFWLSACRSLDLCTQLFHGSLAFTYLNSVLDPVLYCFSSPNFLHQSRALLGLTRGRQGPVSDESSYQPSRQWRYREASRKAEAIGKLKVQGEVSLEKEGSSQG

[3] = biological target: AVPR2 (UniProt P30518 1-371)
[4] = biological target: T2, BDKRB2 (UniProt P30411 1-391, limits assumed)
T2 sequence (looked up): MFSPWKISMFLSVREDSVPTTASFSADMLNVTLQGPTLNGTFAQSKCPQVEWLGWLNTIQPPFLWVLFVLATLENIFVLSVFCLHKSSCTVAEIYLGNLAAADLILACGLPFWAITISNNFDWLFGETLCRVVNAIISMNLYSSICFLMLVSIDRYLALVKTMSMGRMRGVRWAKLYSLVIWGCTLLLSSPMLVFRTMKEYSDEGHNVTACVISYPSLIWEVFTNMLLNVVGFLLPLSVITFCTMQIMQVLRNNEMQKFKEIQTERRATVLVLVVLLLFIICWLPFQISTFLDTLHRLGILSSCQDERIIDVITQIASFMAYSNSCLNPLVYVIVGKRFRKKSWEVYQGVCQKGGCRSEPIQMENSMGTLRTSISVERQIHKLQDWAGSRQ

[5] = biological target: T3, CCR6 (UniProt P51684 1-374)
T3 sequence (looked up): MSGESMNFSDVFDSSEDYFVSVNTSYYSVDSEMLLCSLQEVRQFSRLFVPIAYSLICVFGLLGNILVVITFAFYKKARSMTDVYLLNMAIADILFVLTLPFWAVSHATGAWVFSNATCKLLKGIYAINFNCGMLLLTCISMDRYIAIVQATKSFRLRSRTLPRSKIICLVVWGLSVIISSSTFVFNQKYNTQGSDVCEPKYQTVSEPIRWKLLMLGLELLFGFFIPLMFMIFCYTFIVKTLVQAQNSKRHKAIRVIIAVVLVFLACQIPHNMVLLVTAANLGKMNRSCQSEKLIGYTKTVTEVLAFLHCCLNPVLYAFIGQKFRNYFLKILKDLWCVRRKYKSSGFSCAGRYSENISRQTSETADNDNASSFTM

[6] = biological target: T4, EDG7 (UniProt Q9UBY5 1-353)
T4 sequence (looked up): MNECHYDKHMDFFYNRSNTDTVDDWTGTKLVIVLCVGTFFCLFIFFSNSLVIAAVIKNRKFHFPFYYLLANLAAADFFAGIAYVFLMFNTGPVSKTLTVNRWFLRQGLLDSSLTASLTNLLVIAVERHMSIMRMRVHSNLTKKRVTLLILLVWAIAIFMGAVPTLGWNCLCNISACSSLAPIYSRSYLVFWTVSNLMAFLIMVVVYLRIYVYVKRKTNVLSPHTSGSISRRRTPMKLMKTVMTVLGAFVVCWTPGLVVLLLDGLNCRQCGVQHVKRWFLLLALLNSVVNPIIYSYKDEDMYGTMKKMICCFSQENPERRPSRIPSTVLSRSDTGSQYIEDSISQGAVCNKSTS

[7] = biological target: T5, FSHR (UniProt P23945 18-695)
T5 sequence (looked up): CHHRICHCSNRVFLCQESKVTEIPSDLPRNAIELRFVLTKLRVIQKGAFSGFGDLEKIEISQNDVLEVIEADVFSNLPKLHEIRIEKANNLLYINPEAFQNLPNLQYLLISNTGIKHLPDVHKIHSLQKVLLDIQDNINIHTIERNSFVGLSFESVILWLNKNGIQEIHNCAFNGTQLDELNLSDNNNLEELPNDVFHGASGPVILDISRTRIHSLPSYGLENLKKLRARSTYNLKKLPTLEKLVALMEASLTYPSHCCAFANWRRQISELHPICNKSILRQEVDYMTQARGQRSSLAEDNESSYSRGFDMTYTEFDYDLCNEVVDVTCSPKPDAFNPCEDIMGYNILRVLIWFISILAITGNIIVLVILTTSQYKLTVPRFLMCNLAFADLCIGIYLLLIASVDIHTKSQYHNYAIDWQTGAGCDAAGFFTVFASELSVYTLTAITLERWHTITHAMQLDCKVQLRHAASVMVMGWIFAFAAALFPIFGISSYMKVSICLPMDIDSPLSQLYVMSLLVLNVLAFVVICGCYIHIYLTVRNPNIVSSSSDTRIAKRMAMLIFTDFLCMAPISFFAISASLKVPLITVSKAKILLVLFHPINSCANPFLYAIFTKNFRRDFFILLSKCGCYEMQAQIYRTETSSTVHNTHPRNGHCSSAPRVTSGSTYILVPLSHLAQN

[8] = biological target: P2RY2 (UniProt P41231 1-377)
Chain of P2RY2 (P41231 whole entry): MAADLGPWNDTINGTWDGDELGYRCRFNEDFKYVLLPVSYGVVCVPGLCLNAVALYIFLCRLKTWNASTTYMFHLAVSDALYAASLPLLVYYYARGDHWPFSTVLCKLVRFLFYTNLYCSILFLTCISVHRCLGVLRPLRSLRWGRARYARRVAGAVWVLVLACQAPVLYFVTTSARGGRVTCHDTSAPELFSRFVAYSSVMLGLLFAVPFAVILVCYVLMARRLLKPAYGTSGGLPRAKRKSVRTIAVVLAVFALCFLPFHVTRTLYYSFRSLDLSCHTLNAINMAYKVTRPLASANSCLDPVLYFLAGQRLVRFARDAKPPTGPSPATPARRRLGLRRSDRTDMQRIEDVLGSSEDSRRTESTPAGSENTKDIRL

[9] = biological target: HRH2 (UniProt P25021 1-359)
Chain of HRH2 (P25021 whole entry): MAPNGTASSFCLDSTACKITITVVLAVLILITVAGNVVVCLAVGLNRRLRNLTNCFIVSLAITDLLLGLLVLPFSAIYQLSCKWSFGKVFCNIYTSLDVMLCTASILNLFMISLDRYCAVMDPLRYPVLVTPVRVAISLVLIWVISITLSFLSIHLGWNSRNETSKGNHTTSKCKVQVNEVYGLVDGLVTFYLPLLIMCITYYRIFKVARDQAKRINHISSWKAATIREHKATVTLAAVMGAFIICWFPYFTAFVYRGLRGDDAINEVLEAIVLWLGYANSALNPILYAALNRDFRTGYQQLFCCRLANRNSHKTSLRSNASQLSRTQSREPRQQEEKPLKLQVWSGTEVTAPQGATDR

[10] = biological target: T6, GPR1 (UniProt P46091 1-355)
T6 sequence (looked up): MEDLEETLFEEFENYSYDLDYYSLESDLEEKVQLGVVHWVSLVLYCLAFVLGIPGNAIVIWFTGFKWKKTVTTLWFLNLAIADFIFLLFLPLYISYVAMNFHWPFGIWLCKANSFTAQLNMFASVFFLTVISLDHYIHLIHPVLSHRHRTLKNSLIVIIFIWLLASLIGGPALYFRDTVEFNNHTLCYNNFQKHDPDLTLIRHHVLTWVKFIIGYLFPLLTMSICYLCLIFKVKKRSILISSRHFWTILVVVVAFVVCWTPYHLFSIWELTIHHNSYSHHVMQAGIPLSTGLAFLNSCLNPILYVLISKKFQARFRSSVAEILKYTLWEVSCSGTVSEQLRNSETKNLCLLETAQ

QATVGDVNTDRPGLLDLK (also: synthesised on Rink amide resin, C-terminal amide not given here outright) [octadecaneuropeptide (ODN)]
% Activity, arrestin, antagonist mode, 2.5 uM [1]: -26.4% | % Activity, arrestin, antagonist mode, 2.5 uM [2]: -39.7% | % Activity, arrestin, antagonist mode, 2.5 uM [3]: -11.2% | % Activity, arrestin, antagonist mode, 2.5 uM [4]: -1.7% | % Activity, arrestin, antagonist mode, 2.5 uM [5]: -14.8% | % Activity, arrestin, antagonist mode, 2.5 uM [6]: 5% | % Activity, arrestin, antagonist mode, 2.5 uM [7]: -16.9% | % Activity, arrestin, antagonist mode, 2.5 uM [8]: -5.2% | % Activity, arrestin, antagonist mode, 2.5 uM [9]: -13.3% | % Activity, arrestin, antagonist mode, 2.5 uM [10]: -1.3%
